# Molecular target: T1, human plasma Kallikrein (Homo sapiens, UniProt P03952)
# T1 construct: purchased Stratech, UK
# Experiment: Phage selections against human plasma Kallikrein (abundance in selection output)
# Format: binding
# Conditions: Table 17; relative abundance in the total selection outputs
# Method: Glycerol stocks of phage libraries were diluted to OD600=0.1 in 500 ml 2YT/chloramphenicol (30 μg/ml) cultures and phage were produced at 30° C. over night (15-16 hrs). Phage were purified and chemically modified as described in Heinis, et al., Nat Chem Biol 2009, 5 (7), 502-7 Biotinylated hPK (3 μg) (IHPKA, from human plasma, Innovative Research, Novi, Mich., USA) was incubated with 50 μl pre-washed magnetic streptavidin beads (Dynal, M-280 from Invitrogen, Paisley, UK) for 10 minutes at RT. Beads were washed 3 times prior to blocking with 0.5 ml washing buffer (10 mM Tris-Cl, pH 7.4, 150 mM NaCl, 10 mM MgCl2, 1 mM CaCl2) containing 1% BSA and 0.1% Tween 20 for 30 minutes at RT with rotation. […] Blocked beads were then mixed with the blocked chemically modified phage and incubated for 30 minutes on a rotating wheel at
# RT. Beads were washed 8 times with washing buffer containing 0.1% Tween 20 and twice with washing buffer before incubation with 100 μl of 50 mM glycine, pH 2.2 for 5 minutes. Eluted phage were transferred to 50 μl of 1 M Tris-Cl, pH 8 for neutralization, incubated with 30 ml TG1 cells at OD600=0.4 for 90 minutes at 37° C. and the cells were plated on large 2YT/chloramphenicol plates. One or two additional rounds of panning were performed using the same procedures. In the second round of selection, neutravidin-coated magnetic beads were used to prevent the enrichment of streptavidin-specific peptides. The neutravidin beads were prepared by reacting 0.8 mg neutravidin (Pierce, Rockford, Ill., USA) with 0.5 ml tosyl-activated magnetic beads (Dynal, M-280 from Invitrogen, Paisley, UK) according to the supplier's instructions.
# The WPAR (SEQ ID No. 19) motif identified from Example 1 was analysed in the context of the 06-34-03 peptide, in order to identify alternatives or improvements to the WPAR motif. A library was constructed where positions 1, 6, 7, 8, 9 &10 of 06-34-03 were fixed and positions 2, 3, 4 & 5 were randomised (see ‘Randomisation of peptide domains—Library construction’ in Methods above). Selections against human plasma Kallikrein were performed at a variety of stringencies (see Phage selections' in Methods above). All output sequences were identified and analysed for target binding (see ‘Randomisation of peptide domains—Assay of binding of individual clones’ in Methods above). Table 17 lists each unique sequence, its relative abundance in the selection output (frequency), and a rank number according to target binding strength.
# T1 sequence (P03952 20-638): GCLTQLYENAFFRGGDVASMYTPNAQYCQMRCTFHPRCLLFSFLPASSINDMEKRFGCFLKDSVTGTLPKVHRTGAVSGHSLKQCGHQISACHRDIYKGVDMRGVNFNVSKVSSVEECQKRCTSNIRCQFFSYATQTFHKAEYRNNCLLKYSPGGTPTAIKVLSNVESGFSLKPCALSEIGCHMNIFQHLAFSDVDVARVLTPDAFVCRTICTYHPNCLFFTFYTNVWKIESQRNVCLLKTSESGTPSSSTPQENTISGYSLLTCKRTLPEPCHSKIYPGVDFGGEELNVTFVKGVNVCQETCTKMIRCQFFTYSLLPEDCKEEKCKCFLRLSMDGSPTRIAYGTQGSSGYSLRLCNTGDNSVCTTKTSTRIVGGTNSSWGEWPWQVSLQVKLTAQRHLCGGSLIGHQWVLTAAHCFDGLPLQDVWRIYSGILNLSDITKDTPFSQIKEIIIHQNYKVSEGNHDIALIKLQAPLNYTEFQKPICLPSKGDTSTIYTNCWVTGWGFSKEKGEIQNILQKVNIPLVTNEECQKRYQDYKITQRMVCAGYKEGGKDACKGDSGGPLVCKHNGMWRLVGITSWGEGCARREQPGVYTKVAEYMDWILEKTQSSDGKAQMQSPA
row,Sequence,FREQUENCY
1,CRFPFKCTHQDLC,1
2,CSFLYKCTHQDLC,2
3,CSFMYKCTHQDLC,1
4,CSFPFWCTHQDLC,1
5,CSFPIRCTHQDLC,1
6,CSFPWRCTHQDLC,1
7,CSFPYRCTHQDLC,12
8,CSHPFRCTHQDLC,1
9,CSHRRWCTHQDLC,1
10,CSLPFKCTHQDLC,1
11,CSWAARCTHQDLC,1
12,CSWHARCTHQDLC,1

# More lines, now with the values ahead:
row,FREQUENCY,Sequence
1,4,CSFPFKCTHQDLC
2,1,CSFPYKCTHQDLC
3,1,CSFSYKCTHQDLC
4,2,CSHPYRCTHQDLC
5,1,CSIPFKCTHQDLC
6,1,CSLFDHCTHQDLC
7,1,CSLPIRCTHQDLC
8,2,CSMPYRCTHQDLC
9,1,CSQVVGCTHQDLC

# — US10118947B2, “Modulation of structured polypeptide specificity” (BICYCLE THERAPEUTICS LIMITED, priority 2013, dated 2018)
